We go through one molecule from PMC5077174, “Analysis of the Physiological Activities of Scd6 through Its Interaction with Hmt1” (PLoS ONE, 2016).

In the assay the target is T1, GST-Scd6 (S. cerevisiae, UniProt P45978 1-349).
T1 construct: Scd6, S. cerevisiae; source: E. coli BL21 (DE3), purified (glutathione-sepharose beads)
T1 sequence (looked up): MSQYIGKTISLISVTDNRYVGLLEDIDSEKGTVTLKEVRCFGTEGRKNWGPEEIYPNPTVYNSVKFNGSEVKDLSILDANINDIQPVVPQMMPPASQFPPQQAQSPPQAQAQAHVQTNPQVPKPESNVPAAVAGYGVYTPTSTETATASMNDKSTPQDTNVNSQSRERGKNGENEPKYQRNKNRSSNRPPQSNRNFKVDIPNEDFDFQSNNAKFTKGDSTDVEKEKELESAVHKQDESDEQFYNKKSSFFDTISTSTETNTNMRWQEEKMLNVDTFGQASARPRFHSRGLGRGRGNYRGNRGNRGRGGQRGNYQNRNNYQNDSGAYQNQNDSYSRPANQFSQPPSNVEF
The assay is described as follows: pull-down; His6-Hmt1 incubated with GST or GST-Scd6 immobilized on glutathione-sepharose beads for 3 h at 4°C, 5 washes with PBS; Coomassie staining and anti-His immunoblot. The settings on record: both partners purified. (In general: Immunoblotting shows a protein as a band on a membrane.)

B1: His6-Hmt1 (natural protein, S. cerevisiae, UniProt P38074 1-348, looked up)
chain: MSKTAVKDSATEKTKLSESEQHYFNSYDHYGIHEEMLQDTVRTLSYRNAIIQNKDLFKDKIVLDVGCGTGILSMFAAKHGAKHVIGVDMSSIIEMAKELVELNGFSDKITLLRGKLEDVHLPFPKVDIIISEWMGYFLLYESMMDTVLYARDHYLVEGGLIFPDKCSIHLAGLEDSQYKDEKLNYWQDVYGFDYSPFVPLVLHEPIVDTVERNNVNTTSDKLIEFDLNTVKISDLAFKSNFKLTAKRQDMINGIVTWFDIVFPAPKGKRPVEFSTGPHAPYTHWKQTIFYFPDDLDAETGDTIEGELVCSPNEKNNRDLNIKISYKFESNGIDGNSRSRKNEGSYLMH
notes: Hmt1, S. cerevisiae; source: E. coli BL21 (DE3), purified (Ni-NTA agarose, imidazole elution, dialyzed)
In the case of B1, the binding result is given as “binds”.
